Results as given in patent US20190330296A1 (Janssen / Centocor, published 2019).
Where “and” joins values, the source holds several entries; their conditions need not be identical. Identical values can stand only once.

T1: human neuropeptide Y2 receptor (human, UniProt P49146 1-381)
T1 sequence (looked up): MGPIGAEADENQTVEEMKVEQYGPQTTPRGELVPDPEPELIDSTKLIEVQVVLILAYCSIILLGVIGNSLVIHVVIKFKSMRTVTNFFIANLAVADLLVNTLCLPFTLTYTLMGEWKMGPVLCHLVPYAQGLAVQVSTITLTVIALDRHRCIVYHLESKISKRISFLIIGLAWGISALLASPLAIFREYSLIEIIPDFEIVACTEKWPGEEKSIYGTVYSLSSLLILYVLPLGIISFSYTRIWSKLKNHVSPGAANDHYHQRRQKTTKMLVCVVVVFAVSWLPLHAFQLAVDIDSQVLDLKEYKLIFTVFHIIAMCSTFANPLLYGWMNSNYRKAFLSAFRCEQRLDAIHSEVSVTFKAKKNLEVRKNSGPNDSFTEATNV


Legend:
[1] = molecular target: human GLP-1 receptor (human, UniProt P43220 24-463); test: cell-based or functional assay
[2] = molecular target: T1, human neuropeptide Y2 receptor; test: cell-based or functional assay

human GLP-1 receptor, sequence (P43220 24-463): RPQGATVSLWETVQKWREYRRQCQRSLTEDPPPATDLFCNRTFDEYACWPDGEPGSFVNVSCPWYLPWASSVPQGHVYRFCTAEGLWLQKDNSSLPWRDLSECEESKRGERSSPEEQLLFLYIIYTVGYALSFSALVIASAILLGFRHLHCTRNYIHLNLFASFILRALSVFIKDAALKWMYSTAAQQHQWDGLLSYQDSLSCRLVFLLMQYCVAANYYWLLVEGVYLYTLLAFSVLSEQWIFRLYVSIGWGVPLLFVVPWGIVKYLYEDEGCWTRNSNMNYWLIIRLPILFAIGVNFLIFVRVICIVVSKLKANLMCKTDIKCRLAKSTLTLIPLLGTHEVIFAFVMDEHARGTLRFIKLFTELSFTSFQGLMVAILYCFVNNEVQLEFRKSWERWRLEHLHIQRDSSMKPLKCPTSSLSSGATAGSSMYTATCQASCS

Human GLP1R EC50 [1] | Human Y2R EC50 [2] | Binder
0.049 nM |  | GLP-1 fusion peptide GF41 (SEQ ID NO:153) (Fc fusion) HGEGTFTSDVSSYLEEQAAKEFIAWLVKGGGASGGGGSGGGGSGGGGSGGGGSCPPCPAPEAAGGPSVFLFPPKPKDTLMISRTPEVTCVVVDVSQEDPEVQFNWYVDGVEVHNAKTKPREEQFNSTYRVVSVLTVLHQDWLNGKEYKCKVSNKGLPSSIEKTISKAKGQPREPQVYTLPPSQEEMTKNQVSLTCLVKGFYPSDIAVEWESNGQPENNYKTTPPVLDSDGSFFLYSRLTVDKSRWQEGNVFSCSVMHEALHNHYTQKSLSLSLGKASGSAPAPAPEEEPCA
0.207 nM |  | GLP-1 fusion peptide GF40 (SEQ ID NO:152) (Fc fusion) HGEGTFTSDVSSYLEEQAAKEFIAWLVKGGGASGGGGSGGGGSCPPCPAPEAAGGPSVFLFPPKPKDTLMISRTPEVTCVVVDVSQEDPEVQFNWYVDGVEVHNAKTKPREEQFNSTYRVVSVLTVLHQDWLNGKEYKCKVSNKGLPSSIEKTISKAKGQPREPQVYTLPPSQEEMTKNQVSLTCLVKGFYPSDIAVEWESNGQPENNYKTTPPVLDSDGSFFLYSRLTVDKSRWQEGNVFSCSVMHEALHNHYTQKSLSLSLGKASGSAPAPAPEEEPCA
0.264 nM | 0.018 nM | GLP-1 fusion peptide coupled cyclic PYY peptide conjugate SEQ ID NO:248 (Fc fusion, [cyclo-(G2-COCH2-C30), K(AcBr)11, N-Me-R35]-PYY2-36; Br displaced on conjugation to the linker Cys; C-terminal amide; Cys of the second linker peptide thioether-linked to the Lys11 side chain of the cyclic PYY peptide) HGEGTFTSDVSSYLEEQAAKEFIAWLVKGGGASGGGGSGGGGSCPPCPAPEAAGGPSVFLFPPKPKDTLMISRTPEVTCVVVDVSQEDPEVQFNWYVDGVEVHNAKTKPREEQFNSTYRVVSVLTVLHQDWLNGKEYKCKVSNKGLPSSIEKTISKAKGQPREPQVYTLPPSQEEMTKNQVSLTCLVKGFYPSDIAVEWESNGQPENNYKTTPPVLDSDGSFFLYSRLTVDKSRWQEGNVFSCSVMHEALHNHYTQKSLSLSLGKASGSAPAPAPEEEPCA peptide: GISPEAPGEKASPEELNRYYASLRHYLNCVTRQRY
0.213 nM | 0.01 nM | GLP-1 fusion peptide coupled cyclic PYY peptide conjugate SEQ ID NO:250 (Fc fusion, [cyclo-(G2-E30), S4, K(AcBr)11, psi-(R35,Y36)]-PYY2-36; Br displaced on conjugation to the linker Cys; C-terminal amide; Cys of the second linker peptide thioether-linked to the Lys11 side chain of the cyclic PYY peptide) HGEGTFTSDVSSYLEEQAAKEFIAWLVKGGGASGGGGSGGGGSCPPCPAPEAAGGPSVFLFPPKPKDTLMISRTPEVTCVVVDVSQEDPEVQFNWYVDGVEVHNAKTKPREEQFNSTYRVVSVLTVLHQDWLNGKEYKCKVSNKGLPSSIEKTISKAKGQPREPQVYTLPPSQEEMTKNQVSLTCLVKGFYPSDIAVEWESNGQPENNYKTTPPVLDSDGSFFLYSRLTVDKSRWQEGNVFSCSVMHEALHNHYTQKSLSLSLGKASGSAPAPAPEEEPCA peptide: GISPEAPGEKASPEELNRYYASLRHYLNEVTRQRY
0.148 nM | 0.143 nM | GLP-1 fusion peptide coupled cyclic PYY peptide conjugate SEQ ID NO:249 (Fc fusion, [cyclo-(G2-E30), S4, K(AcBr)11, N-Me-R35]-PYY2-36; Br displaced on conjugation to the linker Cys; C-terminal amide; Cys of the second linker peptide thioether-linked to the Lys11 side chain of the cyclic PYY peptide) HGEGTFTSDVSSYLEEQAAKEFIAWLVKGGGASGGGGSGGGGSCPPCPAPEAAGGPSVFLFPPKPKDTLMISRTPEVTCVVVDVSQEDPEVQFNWYVDGVEVHNAKTKPREEQFNSTYRVVSVLTVLHQDWLNGKEYKCKVSNKGLPSSIEKTISKAKGQPREPQVYTLPPSQEEMTKNQVSLTCLVKGFYPSDIAVEWESNGQPENNYKTTPPVLDSDGSFFLYSRLTVDKSRWQEGNVFSCSVMHEALHNHYTQKSLSLSLGKASGSAPAPAPEEEPCA peptide: not shown
0.035 nM and 0.053 nM |  | GLP-1 fusion peptide GF54 (SEQ ID NO:166) (Fc fusion) HGEGTFTSDVSSYLEEQAAKEFIAWLVKGGGASAPAPAPAPAPAPAPAPAPAPGSCPPCPAPEAAGGPSVFLFPPKPKDTLMISRTPEVTCVVVDVSQEDPEVQFNWYVDGVEVHNAKTKPREEQFNSTYRVVSVLTVLHQDWLNGKEYKCKVSNKGLPSSIEKTISKAKGQPREPQVYTLPPSQEEMTKNQVSLTCLVKGFYPSDIAVEWESNGQPENNYKTTPPVLDSDGSFFLYSRLTVDKSRWQEGNVFSCSVMHEALHNHYTQKSLSLSLGKASGSAPAPAPEEEPCA
0.042 nM | 0.006 nM | GLP-1 fusion peptide coupled cyclic PYY peptide conjugate SEQ ID NO:239 (Fc fusion, [cyclo-(G2-COCH2-C30), K(AcBr)11, N-Me-R35]-PYY2-36; Br displaced on conjugation to the linker Cys; C-terminal amide; Cys of the second linker peptide thioether-linked to the Lys11 side chain of the cyclic PYY peptide) HGEGTFTSDVSSYLEEQAAKEFIAWLVKGGGASAPAPAPAPAPAPAPAPAPAPGSCPPCPAPEAAGGPSVFLFPPKPKDTLMISRTPEVTCVVVDVSQEDPEVQFNWYVDGVEVHNAKTKPREEQFNSTYRVVSVLTVLHQDWLNGKEYKCKVSNKGLPSSIEKTISKAKGQPREPQVYTLPPSQEEMTKNQVSLTCLVKGFYPSDIAVEWESNGQPENNYKTTPPVLDSDGSFFLYSRLTVDKSRWQEGNVFSCSVMHEALHNHYTQKSLSLSLGKASGSAPAPAPEEEPCA peptide: GISPEAPGEKASPEELNRYYASLRHYLNCVTRQRY
0.054 nM |  | GLP-1 fusion peptide GF27 (SEQ ID NO:139) (Fc fusion) HGEGTFTSDVSSYLEEQAAKEFIAWLVKGGGAPAPAPAPAPAPAPAPAPAPAPAPAGPPCPPCPAPEAAGGPSVFLFPPKPKDTLMISRTPEVTCVVVDVSQEDPEVQFNWYVDGVEVHNAKTKPREEQFNSTYRVVSVLTVLHQDWLNGKEYKCKVSNKGLPSSIEKTISKAKGQPREPQVYTLPPSQEEMTKNQVSLTCLVKGFYPSDIAVEWESNGQPENNYKTTPPVLDSDGSFFLYSRLTVDKSRWQEGNVFSCSVMHEALHNHYTQKSLSLSLGAPAPAPAPAPAPCPEEP
